Key:
TLR4 = biological target: T1, TLR4 (Homo sapiens, UniProt O00206); experiment: NF-κB luciferase reporter in HEK293 cells expressing TLR4, LPS stimulation; type: cell-based; details: for LPS-dependent NF-κB activation conferred by soluble protein: culture supernatants added to HEK293 cells stably transfected with TLR4 and NF-κB luciferase reporter; for LPS-mediated NF-κB activation on transient expression: plasmid transfected with CD14 into HEK293 TLR4/NF-κB reporter cells, LPS 250 ng/ml 6 h
T1 construct: expressed in transfected cells; host or cells: HEK293
Description: (A) HEK-293 cells stably transfected with TLR4 and a NF-κB reporter gene were treated with supernatants containing either MD-2 or MD-2s as described in the examples herein. Cells were left untreated or stimulated with LPS for 24 h. Mean relative stimulation of luciferase activity±S.D. for a representative experiment, each performed in triplicate, is shown. (B) HEK-293 cells stably transfected with TLR4 and a NF-κB reporter gene were transiently transfected with plasmids encoding for either MD-2, MD-2s or CD14 as shown. 24 h later, cells were left untreated or stimulated with LPS (250 ng/ml) for 6 h. Mean relative stimulation of luciferase activity±SD for a representative experiment, each performed in triplicate, is shown. (C) and (D) Supernatants were also collected and measured for IL-8 secretion.
(A) HEK293 cells were transiently transfected with plasmids encoding TLR4 and a NF-κB reporter gene in combination with MD-2 and MD-2s as indicated. 24 h later, cells were left untreated or incubated with LPS (250 ng/ml) for 5 h. Mean relative stimulation of luciferase activity±S.D. for a representative experiment from three separate experiments, each performed in triplicate, is shown. (B) HEK-293 cells stably transfected with TLR4 and a NF-κB reporter gene were treated with supernatants containing either MD-2 and MD-2s as depicted and left untreated or incubated with LPS for 24 h. Mean relative stimulation of luciferase activity±S.D. for a representative experiment from three separate experiments, each performed in triplicate, is shown.
HEK293 cells were transiently transfected with the expression vectors noted in combination with constructs encoding the NF-κB- and IL-8-luciferase reporter gene, and either the β-galactosidase gene or the phRL-TK report gene to normalize for transfection efficiency. In all cases, total DNA concentration was kept constant by supplementation with empty vector control. Following overnight incubation, cells were stimulated for 6 hours with 50 ng/ml LPS and then lysed, and luciferase activity was measured as described previously (Ohta et al. (2004) BIOCHEM BIOPHYS RES COMMUN 323, 1103-1108). Data are shown as mean±SD of three or more independent experiments and are reported as a percentage of LPS-stimulated NF-κB and IL-8 promoter activity, or relative luciferase activity.
The requirement for MD-2s in LPS mediated NF-κB activation was assessed. It has been shown that the soluble form of wild-type MD-2 confers LPS responsiveness to cells expressing TLR4; therefore, it was investigated if soluble MD-2s was also bioactive. Culture supernatants were obtained from HEK293 cells transiently expressing control vector, MD-2, or MD-2s, and incubated with HEK293 cells stably transfected with TLR4 and an NF-κB-dependent luciferase reporter gene.
MD-2s was tested to see if it needed to be transiently expressed in TLR4 reporter cells in order to mediate NF-κB activation following LPS stimulation. HEK293 cells stably transfected with TLR4 and an NF-κB-dependent luciferase reporter gene were transiently transfected with plasmids encoding CD14 in combination with either MD-2 or MD-2s, and subsequently treated with LPS.
HEK293 cells were transiently transfected with plasmids encoding CD14, TLR4, and wild-type MD-2 in conjunction with a plasmid encoding the NF-κB-dependent luciferase reporter gene in the presence or absence of a plasmid encoding MD-2s. […] Furthermore, we assessed the inhibitory role of soluble MD-2s following LPS stimulation. HEK293 cells stably transfected with TLR4 and an NF-κB-dependent luciferase reporter gene were incubated with supernatants obtained from HEK293 cells transiently expressing a constant amount of MD-2 with increasing concentrations of MD-2s.

[1] = Biotin-LPS binding, immunoprecipitation from culture supernatants; details: culture supernatants incubated with biotin-LPS, anti-Myc immunoprecipitation
Description: (A) HEK293 cells were transiently transfected with plasmids encoding for Flag-tagged MD-2 (lanes 1-4) in combination with either a Myc-tagged MD-2 (lanes 1 and 3) or a Myc-tagged MD-2s (lanes 2 and 4) expressing plasmid. Co-immunoprecipitation experiments were then performed using an anti-Flag antibody (lanes 3-4) or an IgG isotype control antibody (lane 1-2). Samples were fractionated by SDS-PAGE and immunoblotting with an anti-Myc antibody was performed. (B) Structural analysis of MD-2. Structural features representing the TLR4 binding sites (red); the ligand contacts (dark blue); the ligand binding pocket (light blue) and the TLR4 secondary contacts (pink) are illustrated. The residues deleted in MD-2s (yellow) are also shown. (C) HEK293 cells were transiently transfected with plasmids encoding for Myc-tagged MD-2 (lanes 3 and 4) or a Myc-tagged MD-2s (lanes 5 and 6) expressing plasmid and treated with LPS-biotin as indicated. Co-immunoprecipitation experiments were then performed using an anti-Myc antibody. Samples were fractionated by SDS-PAGE and immunoblotting with an anti-biotin (upper panel) and anti-Myc antibody (lower panel) were performed.
To address this possibility, HEK293 cells were transiently transfected with plasmids encoding either MD-2 or MD-2s. Culture supernatants were then incubated with biotin-LPS and Myc-tagged proteins were immunoprecipitated.

T1 sequence (O00206 24-839): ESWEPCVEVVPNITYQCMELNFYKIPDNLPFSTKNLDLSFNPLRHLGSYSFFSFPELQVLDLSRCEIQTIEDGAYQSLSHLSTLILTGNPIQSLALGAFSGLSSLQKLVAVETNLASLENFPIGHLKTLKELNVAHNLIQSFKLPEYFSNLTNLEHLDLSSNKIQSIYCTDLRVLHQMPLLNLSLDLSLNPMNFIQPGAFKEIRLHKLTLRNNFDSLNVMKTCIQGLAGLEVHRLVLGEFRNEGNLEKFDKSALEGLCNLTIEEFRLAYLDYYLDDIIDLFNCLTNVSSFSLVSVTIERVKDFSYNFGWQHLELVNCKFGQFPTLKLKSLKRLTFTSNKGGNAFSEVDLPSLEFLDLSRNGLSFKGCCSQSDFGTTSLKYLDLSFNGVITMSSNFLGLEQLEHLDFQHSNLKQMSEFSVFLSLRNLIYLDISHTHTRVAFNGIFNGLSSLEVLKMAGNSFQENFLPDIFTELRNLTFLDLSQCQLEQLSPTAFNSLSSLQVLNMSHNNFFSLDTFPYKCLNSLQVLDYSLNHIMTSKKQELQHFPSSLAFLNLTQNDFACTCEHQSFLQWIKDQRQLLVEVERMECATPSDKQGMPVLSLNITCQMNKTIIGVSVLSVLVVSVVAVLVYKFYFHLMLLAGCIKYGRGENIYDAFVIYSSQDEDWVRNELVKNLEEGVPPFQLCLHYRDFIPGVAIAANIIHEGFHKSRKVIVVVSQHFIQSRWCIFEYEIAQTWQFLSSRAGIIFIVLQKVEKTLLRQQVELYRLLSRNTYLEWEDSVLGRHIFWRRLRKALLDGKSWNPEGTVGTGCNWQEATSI

| Molecule | LPS-dependent NF-κB activation conferred by soluble protein (TLR4; LPS 24 h) | LPS-mediated NF-κB activation on transient expression (TLR4) | Binding of secreted protein to LPS [1] | Effect on LPS-induced NF-κB activation mediated by MD-2/TLR4 (TLR4; MD-2s plasmid co-transfected with CD14, TLR4, wild-type MD-2 and reporter, LPS 250 ng/ml 5 h) | Effect of soluble form on LPS-induced NF-κB activation (TLR4; supernatants with constant MD-2 and increasing MD-2s on TLR4/NF-κB reporter cells, LPS 24 h) |
| --- | --- | --- | --- | --- | --- |
| MD-2: full-length human wild-type MD-2, co-receptor of TLR4 [reference compound] | strongly activated NF-κB | activated NF-κB | bound readily to LPS | – | – |
| MD-2s: alternatively spliced isoform of human MD-2 lacking exon 2, with D38G substitution; expressed and secreted protein sequences in Table 1 (protein, listed as Homo sapiens) chain 1: MLPFLFFSTLFSSIFTEAQKQYWVCNSSDASISYTYCGRDLKQLYFNLYITVNTMNLPKRKEVICRGSDDDYSFCRALKGETVNTTISFSFKGIKFSKGKYKCVVEAISGSPEEMLFCLEFVILHQPNSN chain 2: EAQKQYWVCNSSDASISYTYCGRDLKQLYFNLYITVNTMNLPKRKEVICRGSDDDYSFCRALKGETVNTTISFSFKGIKFSKGKYKCVVEAISGSPEEMLFCLEFVILHQPNSN | could not confer LPS responsiveness | unable to induce LPS-mediated NF-κB activation | interaction between secreted MD-2s and LPS was also detected | significantly inhibited | inhibits NF-κB activation |

From patent US9512196B2, “Short-form human MD-2 as a negative regulator of toll-like receptor 4 signaling” (Cedars-Sinai Medical Center, priority 2008, dated 2016)
